Data as given in US20180118816A1 (IGM BIOSCIENCES, published 2018).

B1: HIV02 IgG (HIV02G) (antibody, V domains shown)
VH: QVQLVQSGGQMKKPGESMRISCQASGYEFIDCTLNWVRLAPGRRPEWMGWLKPRGGAVNYARPLQGRVTMTRDVYSDTAFLELRSLTADDTAVYYCTRGKNCDYNWDFEHWGRGTPVTVSS
VL: EIVLTQSPGTLSLSPGETAIISCRTSQYGSLAWYQQRPGQAPRLVIYSGSTRAAGIPDRFSGSRWGPDYNLTIRNLESGDFGLYYCQQYEFFGQGTKVQVDI
notes: also called the IgG
B2: HIV02 IgM+J (HIV02M+J) (antibody)
heavy: QVQLVQSGGQMKKPGESMRISCQASGYEFIDCTLNWVRLAPGRRPEWMGWLKPRGGAVNYARPLQGRVTMTRDVYSDTAFLELRSLTADDTAVYYCTRGKNCDYNWDFEHWGRGTPVTVSSGSASAPTLFPLVSCENSPSDTSSVAVGCLAQDFLPDSITFSWKYKNNSDISSTRGFPSVLRGGKYAATSQVLLPSKDVMQGTDEHVVCKVQHPNGNKEKNVPLPVIAELPPKVSVFVPPRDGFFGNPRKSKLICQATGFSPRQIQVSWLREGKQVGSGVTTDQVQAEAKESGPTTYKVTSTLTIKESDWLSQSMFTCRVDHRGLTFQQNASSMCVPDQDTAIRVFAIPPSFASIFLTKSTKLTCLVTDLTTYDSVTISWTRQNGEAVKTHTNISESHPNATFSAVGEASICEDDWNSGERFTCTVTHTDLPSPLKQTISRPKGVALHRPDVYLLPPAREQLNLRESATITCLVTGFSPADVFVQWMQRGQPLSPEKYVTSAPMPEPQAPGRYFAHSILTVSEEEWNTGETYTCVVAHEALPNRVTERTVDKSTGKPTLYNVSLVMSDTAGTCY
light: EIVLTQSPGTLSLSPGETAIISCRTSQYGSLAWYQQRPGQAPRLVIYSGSTRAAGIPDRFSGSRWGPDYNLTIRNLESGDFGLYYCQQYEFFGQGTKVQVDIKRTVAAPSVFIFPPSDEQLKSGTASVVCLLNNFYPREAKVQWKVDNALQSGNSQESVTEQDSKDSTYSLSSTLTLSKADYEKHKVYACEVTHQGLSSPVTKSFNRGEC
chain: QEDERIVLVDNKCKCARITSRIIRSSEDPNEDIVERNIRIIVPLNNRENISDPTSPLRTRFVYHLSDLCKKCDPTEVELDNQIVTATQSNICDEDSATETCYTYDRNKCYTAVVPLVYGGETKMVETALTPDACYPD
notes: also called the IgM+J

What was measured:
[1] = biological target: T1, HIV gp120 antigen (strain HXB2, Immune Tech, cat #IT-001-0022p-PBS) (HIV, strain HXB2, UniProt P04578 33-511); assay: ELISA, gp120 coated at 1 µg/mL, anti-human kappa-HRP detection; value given to the IgG by the sense of the sentence, not by its word order
T1 construct: domain: gp120; Bought protein coated on ELISA plates; also called gp120 HBX2

[2] = biological target: T1, HIV gp120 antigen (strain HXB2, Immune …); assay: ELISA, interpolated EC10 values; gp120 coating 0.1 µg/mL end of the series
[3] = biological target: T1, HIV gp120 antigen (strain HXB2, Immune …); assay: ELISA, interpolated EC10 values; gp120 coated at 0.1 µg/mL
[4] = biological target: T1, HIV gp120 antigen (strain HXB2, Immune …); assay: ELISA, interpolated EC10 values; gp120 coating 1.0 µg/mL end of the series
[5] = biological target: T1, HIV gp120 antigen (strain HXB2, Immune …); assay: ELISA, gp120 coated at 1 µg/mL, anti-human kappa-HRP detection; value given to the IgM+J by the sense of the sentence, not by its word order
[6] = biological target: T1, HIV gp120 antigen (strain HXB2, Immune …); assay: ELISA, gp120 coated at 1 µg/mL

Row | Binder | EC50 [1] [µg/mL] | fold binding relative to the IgG (HIV02G), on a weight basis (from EC10) [2] [fold] | fold better binding than the IgG (HIV02G), on a molar basis [3] [fold] | fold binding relative to the IgG (HIV02G), on a weight basis (from EC10) [4] [fold] | EC50 [5] [µg/mL] | fold better binding than HIV02G, on a molar basis [6] [fold] | fold difference in EC50 against HIV02G, by weight [6] [fold]
1 | B1 | 2.3 | – | – | – | – | – | –
2 | B2 | – | 20 | 120 | 5 | 0.32 | 42 | 7
